Reference: PMC12192291, “Ancestral [Fe-S] biogenesis system SMS has a unique mechanism of cluster assembly and sulfur utilization” (PLOS Biology, 2025)

T1: SmsC (Methanocaldococcus jannaschii, UniProt Q60350)
T1 sequence (Q60350 1-250): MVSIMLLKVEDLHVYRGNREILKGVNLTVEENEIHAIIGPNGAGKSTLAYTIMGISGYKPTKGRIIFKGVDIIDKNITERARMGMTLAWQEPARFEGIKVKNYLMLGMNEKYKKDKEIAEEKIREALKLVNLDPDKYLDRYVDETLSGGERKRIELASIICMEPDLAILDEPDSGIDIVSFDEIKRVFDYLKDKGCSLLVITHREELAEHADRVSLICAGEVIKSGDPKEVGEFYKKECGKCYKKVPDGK

B1: SmsB from Methanocaldococcus jannaschii (natural protein)
chain: MSIKEELMEIIEAIKYTSEKPEEIVHGKGPRIIVKESRIIDVQGDEGIILEGKEEDGKIKAKIIVKKGYKFKYPIHMCFGITEENISQIIDVEIILEEDSSISLMSHCSFPKGKGIKHIMNGIIKIGKNAKFSYNEFHYHGMDGDILVKPTVKVEIDEGGIYISNFTLTKGRIGTLDIEQEIIAKKDAIIDITTRTYAIKEDVVKVNEVVKLNGENAKCIIKSRGAAMDNSKISLKLKIEGNAPYSKGHIDCAEIVKGNAEVESIPIVVVRDDKARITHEAAIGSVDKKQLETLMAKGLDEDEATEIIVKGMIGDL
notes: SmsB, Methanocaldococcus jannaschii, subunit of the SMS system; Mainly a homodimer in solution; two copies in SmsC2B2; also called SmsB2; source: E. coli MG1655(DE3) (FBE682), purified (HisTrap, TEV protease, Ni-NTA, SEC); not shown: His6, N-terminal, cleaved
B2: SmsC from Methanocaldococcus jannaschii (enzyme)
chain: T1 sequence (Q60350 1-250)
notes: SmsC, Methanocaldococcus jannaschii, ABC ATPase subunit of the SMS system; Monomer in solution without nucleotide; two copies in SmsC2B2; In the cryo-EM sample one of the two copies carries a [4Fe-4S] cluster; also called apo-SmsC; source: E. coli MG1655(DE3) (FBE682), purified (HisTrap, TEV protease, Ni-NTA, SEC); not shown: His6, N-terminal, cleaved

Legend:
[1] = biological target: T1, SmsC; test: ligand-induced dimerization by size exclusion chromatography; blocks [Fe-S] reconstitution on SmsC2B2; format: binding; set-up: gene MJ0035; SmsC, His-tag removed
[2] = biological target: T1, SmsC; test: enzyme-coupled ATPase assay (PK/LDH) on purified protein; format: biochemical; set-up: gene MJ0035; SmsC alone and SmsC2B2 complex
[3] = biological target: the molecule itself; test: SEC; calibrated Hiload 600 Superdex 200, 50 mM Tris-HCl pH 7.8, 100 mM NaCl, 1 mM DTT; no nucleotide; for the complex SmsB2 and SmsC were mixed in molar amounts corresponding to SmsC2B2 and incubated overnight
[4] = biological target: the molecule itself; test: cryo-EM structure; chemically reconstituted [4Fe-4S]-bound SmsC2B2, prepared under anoxic conditions and quickly vitrified (9H78, EMD-51913)
[5] = biological target: B1; test: SEC; calibrated Hiload 600 Superdex 200, 50 mM Tris-HCl pH 7.8, 100 mM NaCl, 1 mM DTT; no nucleotide; for the complex SmsB2 and SmsC were mixed in molar amounts corresponding to SmsC2B2 and incubated overnight; details: both partners purified

With Nc1ncnc2c1ncn2[C@@H]1O[C@H](CO[P@](=O)(O)O[P@](=O)(O)CP(=O)(O)O)[C@@H](O)[C@H]1O [AMP-PCP] the “ligand-induced dimerization by size exclusion chromatography; blocks [Fe-S] reco” value [1] was “Incubation of SmsC with excess of adenosine-5′-[(β,γ)-methyleno]triphosphate (AMP-PCP) led to SmsC dimer formation”.

In the case of Nc1ncnc2c1ncn2[C@@H]1O[C@H](COP(=O)(O)OP(=O)(O)OP(=O)(O)O)[C@@H](O)[C@H]1O [ATP], the “enzyme-coupled ATPase assay (PK/LDH) on purified protein” value [2] is reported as 0.98 min⁻¹ (kcat).

B1 was tested, and the “stoichiometry N” value [3] was 2.

B2: binds [4]; binds [5].
